This note sets out measurements from patent publication US20090069241A1, “Compositions and Methods for Use of Pigment Epithelial Derived Factor (PEDF) Peptide Fragments” (Yale University, priority 2006, published 2009).

The test system of assay [1] is inner retina (INL, IPL, retinal ganglion cell layer). The assay can be described thus: Transient retinal ischemia-reperfusion injury with intravitreous injection; morphometric analysis of inner retina. Format: in vivo, C57/B16 mice. Details: thickness of the INL compared with non-ischemia control / thickness of the IPL compared with non-ischemia control / surviving cells in the RGC layer compared with non-ischemia control: concentration or dose not given beside the values. To be noted: for surviving cells in the RGC layer compared with non-ischemia control / thickness of the INL compared with non-ischemia control / thickness of the IPL compared with non-ischemia control: single intravitreous injection immediately after ischemia. How it is done: Induction of transient retinal ischemia in C57/B16 mice: Animal experiments were conducted in accordance with ARVO guidelines and were approved by the Animal Care and Use Committee of Yale University School of Medicine. Transient retinal ischemia was induced in one eye and the contralateral eye served as control. During the operation and recovery period, animals were placed on water heating pads at 37° C. […] Briefly, animals were anesthetized by i.p. injection of a mixture of 100 mg/kg Ketamine+10 mg/kg Xylazine. […] The anterior chambers were cannulated in fully anesthetized animals with a 30-gauge infusion needle connected by PE10 polyethylene tubing and IV set to a physiological saline reservoir. The intraocular pressure (IOP) of the cannulated eye was raised to 120 mmHg for 60 minutes by elevating the saline reservoir. Retinal ischemia was confirmed by direct microscopic observation of whitening of the fundus. The reperfusion was confirmed visually when needle was withdrawn from the anterior chamber. One group of animals was treated with Vetropolycin® ophthalmic ointment (Pharmaderm, Melville, N. Y.) on the ischemic eyes and allowed to recover for 24 hours, 48 hours, 7 days and 14 days before sacrifice. Other groups were kept for intravitreous injections of the PEDF and PEDF peptides.
Intravitreous injection of PEDF, PEDF peptides and encapsulated PEDF peptide: One group of animals remained uninjected to monitor ischemic damage. All other groups received intravitreal injections, which were performed under an ophthalmic microscope. […] Intravitreous injection was performed with 30-gauge beveled needle attached to PE10 polyethylene tubing and a 10 μl syringe (Hamilton, Reno, Nev.). The injections were performed through the sclera, approximately 1 mm behind the limbus. The needle remained in the vitreous cavity for 30 seconds after injection then gently withdrawn. Control groups were injected with 1 μl PBS, 1 μl control peptide (1 μg/μl), or blank nanospheres (0.1 mg/μl). […] Vetropolycin® ointment was applied to the injected eyes and animals were allowed to recover for 48 hours or 7 days before sacrifice.
Preparation of retinal tissue: at designated time points, mice were sacrificed by carbon dioxide inhalation followed by, in some cases, cervical dislocation. The eyes were enucleated, fixed in 4% paraformaldehyde for 24 hours, washed with PBS and embedded in paraffin. Five (5) μm thick sections that included the optic nerve were collected. Sections were processed for TUNEL, immunocytochemistry, or histochemical staining with hematoxylin and eosin (Surgipath, Ltd, Richmond, Ill.) using standard methods.
Morphologic and Morphometric Analysis: For each eye, three sections, which included the optic disk and were spaced at least 20 μm apart, were used for morphological analysis. The fields analyzed were 4×250 μm zones sampled from all retinal eccentricities. These zones were 500 μm away from the edge of optic disk or the ora serrata. The average measurement of these 4 zones was used for statistical analysis. The mean thickness of inner nuclear layer (INL) and inner plexiform layer (IPL) was measured using Axiovision3.1 software (Carl Zeiss MicroImaging, Inc., Thornwood, N.Y.). Total surviving cells in the retinal ganglion cell layer at the same locations were counted using light microscopy.
Statistical analysis: Twelve fields per retina were analyzed for each treatment, and a total of 72 fields were used. For statistical analysis, one-way analysis of variance (ANOVA) and Fisher tests were performed; p<0.05 was taken as significant. Data are presented as means and standard deviations.

Assay [2] addresses VEGFR1 (Homo sapiens, UniProt P17948). The assay can be described thus: VEGFR1 binding. To be noted: compared to PEDF purified from human plasma or recombinant non-modified human PEDF.
In assay [3] the target is VEGF receptor KDR (VEGFR2) (Homo sapiens, UniProt P35968). The assay can be described thus: ELISA binding to VEGF receptor KDR.
Chain of VEGF receptor KDR (VEGFR2) (P35968 20-1356, species assumed): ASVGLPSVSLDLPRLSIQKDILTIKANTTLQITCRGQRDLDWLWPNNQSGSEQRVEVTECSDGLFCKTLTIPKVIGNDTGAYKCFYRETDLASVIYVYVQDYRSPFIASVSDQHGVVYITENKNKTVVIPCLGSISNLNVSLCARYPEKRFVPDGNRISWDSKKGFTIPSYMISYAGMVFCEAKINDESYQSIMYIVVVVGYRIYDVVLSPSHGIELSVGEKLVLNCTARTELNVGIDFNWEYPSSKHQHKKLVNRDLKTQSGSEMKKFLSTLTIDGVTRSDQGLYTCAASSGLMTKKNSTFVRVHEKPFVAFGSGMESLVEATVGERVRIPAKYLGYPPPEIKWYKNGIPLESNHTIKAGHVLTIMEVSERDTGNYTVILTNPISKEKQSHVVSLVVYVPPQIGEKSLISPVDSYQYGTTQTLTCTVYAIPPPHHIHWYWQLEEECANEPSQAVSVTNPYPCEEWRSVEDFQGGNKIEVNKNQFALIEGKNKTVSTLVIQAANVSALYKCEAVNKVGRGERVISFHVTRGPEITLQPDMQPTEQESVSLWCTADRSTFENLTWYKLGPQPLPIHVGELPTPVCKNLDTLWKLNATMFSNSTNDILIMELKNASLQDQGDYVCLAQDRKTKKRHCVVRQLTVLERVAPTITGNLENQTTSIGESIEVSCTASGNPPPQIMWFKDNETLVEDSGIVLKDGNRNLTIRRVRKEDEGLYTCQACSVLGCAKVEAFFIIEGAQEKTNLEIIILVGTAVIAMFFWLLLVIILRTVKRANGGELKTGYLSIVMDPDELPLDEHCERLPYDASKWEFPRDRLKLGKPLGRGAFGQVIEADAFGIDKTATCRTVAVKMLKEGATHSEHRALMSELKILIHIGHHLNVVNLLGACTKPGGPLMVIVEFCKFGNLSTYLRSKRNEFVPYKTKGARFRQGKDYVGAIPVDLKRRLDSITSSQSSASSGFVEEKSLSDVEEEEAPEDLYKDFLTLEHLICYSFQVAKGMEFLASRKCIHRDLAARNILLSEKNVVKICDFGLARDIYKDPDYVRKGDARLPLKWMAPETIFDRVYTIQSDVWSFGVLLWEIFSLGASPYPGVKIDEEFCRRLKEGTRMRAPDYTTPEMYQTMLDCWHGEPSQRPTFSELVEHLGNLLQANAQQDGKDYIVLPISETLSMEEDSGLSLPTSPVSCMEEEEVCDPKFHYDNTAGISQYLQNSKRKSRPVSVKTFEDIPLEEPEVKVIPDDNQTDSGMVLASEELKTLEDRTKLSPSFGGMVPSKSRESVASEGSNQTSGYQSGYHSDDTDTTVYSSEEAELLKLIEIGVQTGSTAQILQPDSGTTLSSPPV
Assay [4] has as its system VEGF. The assay can be described thus: Block of VEGF mitogenic signaling. To be noted: compared to recombinant, non-modified human PEDF.
The target of assay [5] is VEGFR2 (Homo sapiens, UniProt P35968). The assay can be described thus: Block of VEGFR2 phosphorylation. To be noted: compared to recombinant, non-modified human PEDF.
Chain of VEGFR2 (P35968 20-1356, species assumed): as above
Assay [6] concerns GFAP. The assay can be described thus: GFAP immunocytochemical labeling of Müller glial cells after transient ischemia. Format: in vivo, C57/B16 mice. How it is done:
Induction of transient retinal ischemia in C57/B16 mice: Animal experiments were conducted in accordance with ARVO guidelines and were approved by the Animal Care and Use Committee of Yale University School of Medicine. Transient retinal ischemia was induced in one eye and the contralateral eye served as control. During the operation and recovery period, animals were placed on water heating pads at 37° C. Eighty-one 10-14 weeks male C57/B16 mice (Charles River Laboratories, Wilmington, Mass., weighing […]) were used in this experiment. To induce retinal ischemia, a previously established technique with some modifications was used (Hughes, 1991, Exp Eye Res. 53(5):573-582; Buchi et al., 1991, Opthalmologica 203 (3): 138-147). Briefly, animals were anesthetized by i.p. injection of a mixture of 100 mg/kg Ketamine+10 mg/kg Xylazine. The corneas were topically anesthetized with 0.5% proparacaine hydrochloride (Bausch & Lomb Pharmaceuticals, Inc., Tampa, Fla.), and the pupils dilated with 2.5% phenylephrine (Bausch & Lomb Pharmaceuticals, Inc., Tampa, Fla.). The anterior chambers were cannulated in fully anesthetized animals with a 30-gauge infusion needle connected by PE10 polyethylene tubing and IV set to a physiological saline reservoir. The intraocular pressure (IOP) of the cannulated eye was raised to 120 mmHg for 60 minutes by elevating the saline reservoir. Retinal ischemia was confirmed by direct microscopic observation of whitening of the fundus. The reperfusion was confirmed visually when needle was withdrawn from the anterior chamber. One group of animals was treated with Vetropolycin® ophthalmic ointment (Pharmaderm, Melville, N. Y.) on the ischemic eyes and allowed to recover for 24 hours, 48 hours, 7 days and 14 days before sacrifice. Other groups were kept for intravitreous injections of the PEDF and PEDF peptides.
Intravitreous injection of PEDF, PEDF peptides and encapsulated PEDF peptide: One group of animals remained uninjected to monitor ischemic damage. All other groups received intravitreal injections, which were performed under an ophthalmic microscope. Experimental groups received 1 μl native PEDF protein (1 μg/μl), PEDF82-121 peptide (1 μg/μl), PEDF76-95 peptide (1 μg/μl), PEDF91-110 peptide (1 μg/μl), PEDF106-125 peptide (1 μg/μl) or PLGA PEDF82-121 nanospheres (0.1 mg/μl, less than 1.6 μg PEDF82-121 peptide when fully released) immediately after the end of the transient ischemia. Intravitreous injection was performed with 30-gauge beveled needle attached to PE10 polyethylene tubing and a 10 μl syringe (Hamilton, Reno, Nev.). The injections were performed through the sclera, approximately 1 mm behind the limbus. The needle remained in the vitreous cavity for 30 seconds after injection then gently withdrawn. […]

Setting [7] is: 7 days post ischemia, free single bolus or nanospheres.
The mark [8] stands for this setting: 48 hours after ischemia reperfusion.

Chain of VEGFR1 (P17948 27-1338, species assumed): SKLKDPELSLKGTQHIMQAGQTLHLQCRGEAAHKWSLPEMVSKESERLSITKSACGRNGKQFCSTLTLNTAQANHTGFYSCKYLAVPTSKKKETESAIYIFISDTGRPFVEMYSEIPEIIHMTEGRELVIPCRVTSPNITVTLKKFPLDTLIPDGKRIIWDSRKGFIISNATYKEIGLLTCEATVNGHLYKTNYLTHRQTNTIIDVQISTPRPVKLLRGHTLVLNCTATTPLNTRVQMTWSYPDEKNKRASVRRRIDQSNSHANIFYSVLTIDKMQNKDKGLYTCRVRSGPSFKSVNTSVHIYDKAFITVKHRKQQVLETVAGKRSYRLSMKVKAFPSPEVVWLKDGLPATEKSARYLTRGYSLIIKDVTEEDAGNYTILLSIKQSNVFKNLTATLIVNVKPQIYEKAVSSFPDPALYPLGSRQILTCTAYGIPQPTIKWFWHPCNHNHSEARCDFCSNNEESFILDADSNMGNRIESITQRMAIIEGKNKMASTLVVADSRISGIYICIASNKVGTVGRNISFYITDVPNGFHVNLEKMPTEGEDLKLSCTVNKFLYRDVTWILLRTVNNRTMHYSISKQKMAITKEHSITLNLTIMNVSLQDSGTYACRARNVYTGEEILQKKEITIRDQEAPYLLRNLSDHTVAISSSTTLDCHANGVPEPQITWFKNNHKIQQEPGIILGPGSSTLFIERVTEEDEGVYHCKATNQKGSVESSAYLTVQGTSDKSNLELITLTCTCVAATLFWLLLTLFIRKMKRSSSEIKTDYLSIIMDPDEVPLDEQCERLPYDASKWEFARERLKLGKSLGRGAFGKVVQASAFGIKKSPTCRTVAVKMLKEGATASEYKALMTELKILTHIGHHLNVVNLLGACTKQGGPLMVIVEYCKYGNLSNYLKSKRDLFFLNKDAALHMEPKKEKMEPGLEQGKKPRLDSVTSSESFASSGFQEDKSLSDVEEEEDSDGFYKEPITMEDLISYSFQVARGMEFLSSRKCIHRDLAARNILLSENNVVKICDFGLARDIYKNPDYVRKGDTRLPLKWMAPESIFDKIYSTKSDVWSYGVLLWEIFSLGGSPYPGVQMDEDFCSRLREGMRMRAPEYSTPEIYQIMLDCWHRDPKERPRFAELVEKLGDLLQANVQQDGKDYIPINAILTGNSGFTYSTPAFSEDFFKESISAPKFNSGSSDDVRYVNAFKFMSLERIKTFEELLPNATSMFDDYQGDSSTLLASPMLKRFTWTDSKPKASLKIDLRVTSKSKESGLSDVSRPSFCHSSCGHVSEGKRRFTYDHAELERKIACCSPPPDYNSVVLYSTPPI

Regarding “PEDF76-95: residues 76 to 95 of human PEDF, TNVLLSPLSVATALSALSLG (SEQ ID NO: 5) ((1)..(20) Residues 76-95 of human PEDF; listed as Homo sapiens)”, the “protection of the IPL (in words)” value in assay [1] (seven days after ischemic injury) is listed as “protected”. In assay [1] (seven days after ischemic injury, versus control peptide PEDF136-155), the “protection of the INL (in words)” value is “protected the INL significantly”.

In the case of “PEDF91-110: residues 91 to 110 of human PEDF, ALSLGAEQRTESIIHRALYY (SEQ ID NO: 7) ((1)..(20) Residues 91-110 of human PEDF; listed as Homo sapiens)”, the “protection of the retinal ganglion cell layer (in words)” value in assay [1] (setting [7]) was “significantly protecting”. For the same molecule, the “RGCs protected from dying after ischemic injury” value in assay [1] (after ischemic injury) was “about 85%”.

As for “PEDF106-125: residues 106 to 125 of human PEDF, RALYYDLISSPDIHGTYKEL (SEQ ID NO: 9) ((1)..(20) Residues 106-125 of human PEDF; listed as Homo sapiens)”, in assay [1] (setting [7]), the “protection of the retinal ganglion cell layer (in words)” value is reported as “significantly protecting”.

B1: coPEDF: bacterially expressed codon-optimized fusion protein: thioredoxin, His6 tag, thrombin site and S-Tag fused N-terminally to human PEDF (protein)
chain: QNPASPPEEGSPDPDSTGALVEEEDPFFKVPVNKLAAAVSNFGYDLYRVRSSMSPTTNVLLSPLSVATALSALSLGADERTESIIHRALYYDLISSPDIHGTYKELLDTVTAPQKNLKSASRIVFEKKLRIKSSFVAPLEKSYGTRPRVLTGNPRLDLQEINNWVQAQMKGKLARSTKEIPDEISILLLGVAHFKGQWVTKFDSRKTSLEDFYLDEERTVRVPMMSDPKAVLRYGLDSDLSCKIAQLPLTGSMSIIFFLPLKVTQNLTLIEESLTSEFIHDIDRELKTVQAVLTVPKLKLSYEGEVTKSLQEMKLQSLFDSPDFSKITGKPIKLTQVEHRAGFEWNEDGAGTTPSPGLQPAHLTFPLDYHLNQPFIFVLRDTDTGALLFIGKILDPRGP
modifications: left off: large carriers; small tags and cut ends
notes: bacterially expressed codon-optimized fusion protein: thioredoxin, His6 tag, thrombin site and S-Tag fused N-terminally to human PEDF
Consider B1, for which the VEGFR1 binding result in assay [2] is “increased VEGFR1 binding”. Further, the “binding to VEGF receptor KDR (VEGFR2)” value in assay [3] is recorded as “improves binding”. The “block of VEGF mitogenic signaling” value in assay [4] is recorded as “greater effect”. Besides, the “block of VEGFR2 phosphorylation” value in assay [5] is given as “greater effect”.

B2: PEDF protein: full length pigment epithelium-derived factor, a 50 kD protein of the serpin family (protein, listed as Homo sapiens)
chain: MQALVLLLCIGALLGHSSCQNPASPPEEGSPDPDSTGALVEEEDPFFKVPVNKLAAAVSNFGYDLYRVRSSMSPTTNVLLSPLSVATALSALSLGADERTESIIHRALYYDLISSPDIHGTYKELLDTVTAPQKNLKSASRIVFEKKLRIKSSFVAPLEKSYGTRPRVLTGNPRLDLQEINNWVQAQMKGKLARSTKEIPDEISILLLGVAHFKGQWVTKFDSRKTSLEDFYLDEERTVRVPMMSDPKAVLRYGLDSDLSCKIAQLPLTGSMSIIFFLPLKVTQNLTLIEESLTSEFIHDIDRELKTVQAVLTVPKLKLSYEGEVTKSLQEMKLQSLFDSPDFSKITGKPIKLTQVEHRAGFEWNEDGAGTTPSPGLQPAHLTFPLDYHLNQPFIFVLRDTDTGALLFIGKILDPRGP
On to B2, for which, in assay [1] (setting [8]), the “surviving cells in the RGC layer compared with non-ischemia control” value stood at 85.4%, the “thickness of the INL compared with non-ischemia control” value was found to be 100% and the “thickness of the IPL compared with non-ischemia control” value was determined as 86.6%. The “protection of the retinal ganglion cell layer (in words)” value in assay [1] (48 hours post ischemia, versus PBS or PEDF136-155) is listed as “significantly reduced cell death”. In assay [1] (7 days after injury), the “surviving cells in the RGC layer compared with non-ischemia control” value is 87.4%, the “thickness of the INL compared with non-ischemia control” value stood at 82.5% and the “thickness of the IPL compared with non-ischemia control” value came to 78.2%. In assay [1] (setting [7]), the “protection of the retinal ganglion cell layer (in words)” value was “significantly reduced cell death”. In addition, the “IPL thickness after ischemic injury (in words)” value in assay [1] (compared to PBS injected controls, time not stated) is on record as “prevented the thinning of the IPL”. For the same molecule, the “GFAP labeling compared to PBS injections” value in assay [6] (48 hours after transient ischemia) was “less GFAP labeling”. In assay [6] (7 days after injury), the GFAP staining entry is listed as “very similar staining”.
